# Experimental data from paper PMC12489471, “A multi-dentate, cooperative interaction between endo- and exo-ribonucleases within the bacterial RNA degradosome” (Nucleic Acids Research, 2025).
# T1: PNPase (Escherichia coli, UniProt P05055)
# T1 construct: made in house; host or cells: E. coli Evo21(DE3)
# T1 sequence (P05055 whole entry, looked up): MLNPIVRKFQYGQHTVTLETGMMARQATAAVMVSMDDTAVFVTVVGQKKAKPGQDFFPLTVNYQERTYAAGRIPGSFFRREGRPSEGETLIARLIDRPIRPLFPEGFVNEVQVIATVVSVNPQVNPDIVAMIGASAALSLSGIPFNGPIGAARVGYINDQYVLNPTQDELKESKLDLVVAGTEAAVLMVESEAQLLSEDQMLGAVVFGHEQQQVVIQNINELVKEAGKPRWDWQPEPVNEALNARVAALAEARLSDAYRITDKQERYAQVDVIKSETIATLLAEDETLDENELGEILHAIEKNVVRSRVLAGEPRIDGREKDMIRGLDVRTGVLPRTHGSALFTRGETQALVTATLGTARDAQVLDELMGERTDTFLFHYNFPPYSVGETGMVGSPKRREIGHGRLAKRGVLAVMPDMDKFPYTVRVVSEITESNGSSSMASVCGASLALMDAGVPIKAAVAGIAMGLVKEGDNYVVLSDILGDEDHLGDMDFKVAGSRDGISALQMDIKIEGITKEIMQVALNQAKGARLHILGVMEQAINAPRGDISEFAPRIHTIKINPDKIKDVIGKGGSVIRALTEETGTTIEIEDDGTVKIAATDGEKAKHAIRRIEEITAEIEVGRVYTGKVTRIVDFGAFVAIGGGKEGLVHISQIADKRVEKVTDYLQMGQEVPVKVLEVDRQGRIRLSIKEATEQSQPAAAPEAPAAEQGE
# B1: RNase E 960 – 1061 wildtype: wildtype RNase E peptide 960–1061 (peptide)
# chain: VVETAEVVVAEPEVVAQPAAPVVAEVAAEVETVAAVEPEVTVEHNHATAPMTRAPAPEYVPEAPRHSDWQRPTFAFEGKGAAGGHTATHHASAAPARPQPVE
# modifications: left off: His6, N-terminal, cleaved | MBP, N-terminal, cleaved | intein, C-terminal, cleaved | choline-binding domain, C-terminal, cleaved
# Molecular target: T1, PNPase
# Format: binding, E. coli
# Details: SPR, 25°C, immobilized PNPase C-His; HEPES pH 7.2; 0, 12.5, 25 and 50 nM (point mutants); contact 120 s, dissociation 120 s; duplicates
molecule,measurement,value
B1,"Kd (dissociation rate constant, point mutants and wildtype)",0.026 s⁻¹
